Legend:
[1] = target: H4K16ac nucleosome (Xenopus | not stated); assay: native gel or EMSA
[2] = target: unmodified nucleosome (Xenopus); assay: native gel or EMSA

Kd [1]: 83.3 nM
Kd [2]: 70.8 nM
Substance: catalytic domain of yeast Dot1 (residues 158 to 582) (from UniProt Q04089 158-582) (domain or fragment)

Source: PMC8279004
